The target in this experiment is native Tyr-p3 (group 3 allergen of Tyrophagus putrescentiae) (Tyrophagus putrescentiae) (UniProt C6ZDB5).
Sequence of UniProt C6ZDB5 (C6ZDB5 34-285): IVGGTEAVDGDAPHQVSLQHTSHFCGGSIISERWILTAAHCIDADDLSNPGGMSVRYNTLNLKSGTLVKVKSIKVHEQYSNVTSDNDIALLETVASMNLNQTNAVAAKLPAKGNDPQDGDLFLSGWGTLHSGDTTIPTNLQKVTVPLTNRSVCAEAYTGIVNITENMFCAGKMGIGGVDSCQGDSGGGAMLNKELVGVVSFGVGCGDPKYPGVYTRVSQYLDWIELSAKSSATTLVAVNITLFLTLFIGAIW

Turning to “soybean trypsin inhibitor (from UniProt P01070 25-205) (natural protein)”, the inhibition of the protease activity of nTyr-p3 on the substrate TAME (OD 405 nm; sample pretreated with 10 mM inhibitor for 60 min at 25°C) stood at 88%.
